Assay results from publication PMC10657408, “c-di-GMP inhibits the DNA binding activity of H-NS in Salmonella” (Nature Communications, 2023).
Residue numbers refer to the chain shown, from its start.

How the values were obtained:
[1] = tested on: H-NS (Salmonella enterica serovar Typhimurium (LT2 reference genome; SL1344 also used)); test: ITC; conditions: ITC: 25 mM Tris-HCl, 150 mM NaCl, pH 7.5, 20 C, 100 uM DNA into 10 uM protein; EMSA: 20 mM Tris-HCl, 4 mM MgCl2, 100 mM NaCl, 1 mM DTT, 1% NP-40, 10% glycerol …
[2] = tested on: H-NS K107A (Salmonella enterica serovar Typhimurium (LT2 reference genome; SL1344 also used)); test: ITC; conditions: ITC: 25 mM Tris-HCl, 150 mM NaCl, pH 7.5, 20 C, 100 uM DNA into 10 uM protein; EMSA: 20 mM Tris-HCl, 4 mM MgCl2, 100 mM NaCl, 1 mM DTT, 1% NP-40, 10% glycerol …
[3] = biological target: T1, H-NS (Salmonella enterica serovar Typhimurium (LT2 reference genome; SL1344 also used)) (UniProt P0A1S2); test: ITC; conditions: ITC: 25 mM Tris-HCl, 150 mM NaCl, pH 7.5, 20 C, 100 uM DNA into 10 uM protein; EMSA: 20 mM Tris-HCl, 4 mM MgCl2, 100 mM NaCl, 1 mM DTT, 1% NP-40, 10% glycerol …
T1 sequence: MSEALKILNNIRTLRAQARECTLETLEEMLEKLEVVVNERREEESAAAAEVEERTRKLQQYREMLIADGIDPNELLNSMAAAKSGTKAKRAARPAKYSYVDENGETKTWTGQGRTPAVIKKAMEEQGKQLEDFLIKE

[4] = biological target: T2, H-NS K107A K107A (Salmonella enterica serovar Typhimurium (LT2 reference genome; SL1344 also used)) (UniProt P0A1S2); test: ITC; conditions: ITC: 25 mM Tris-HCl, 150 mM NaCl, pH 7.5, 20 C, 100 uM DNA into 10 uM protein; EMSA: 20 mM Tris-HCl, 4 mM MgCl2, 100 mM NaCl, 1 mM DTT, 1% NP-40, 10% glycerol …
T2 sequence: T1 sequence with K107A

[5] = biological target: T3, H-NS T115A T115A (Salmonella enterica serovar Typhimurium (LT2 reference genome; SL1344 also used)) (UniProt P0A1S2); test: ITC; conditions: ITC: 25 mM Tris-HCl, 150 mM NaCl, pH 7.5, 20 C, 100 uM DNA into 10 uM protein; EMSA: 20 mM Tris-HCl, 4 mM MgCl2, 100 mM NaCl, 1 mM DTT, 1% NP-40, 10% glycerol …
T3 sequence: T1 sequence with T115A

[6] = biological target: T1, H-NS (Salmonella enterica serovar Typhimurium (LT2 reference genome; SL1344 also used)); test: EMSA; conditions: ITC: 25 mM Tris-HCl, 150 mM NaCl, pH 7.5, 20 C, 100 uM DNA into 10 uM protein; EMSA: 20 mM Tris-HCl, 4 mM MgCl2, 100 mM NaCl, 1 mM DTT, 1% NP-40, 10% glycerol …
[7] = biological target: T2, H-NS K107A K107A (Salmonella enterica serovar Typhimurium (LT2 reference genome; SL1344 also used)); test: EMSA; conditions: ITC: 25 mM Tris-HCl, 150 mM NaCl, pH 7.5, 20 C, 100 uM DNA into 10 uM protein; EMSA: 20 mM Tris-HCl, 4 mM MgCl2, 100 mM NaCl, 1 mM DTT, 1% NP-40, 10% glycerol …
[8] = biological target: T4, StpA (Salmonella enterica, UniProt P0A1S4, F98Y); test: Kd measurement (ITC, Supplementary Fig. […]b); type: binding
T4 sequence (P0A1S4 1-133 F98Y): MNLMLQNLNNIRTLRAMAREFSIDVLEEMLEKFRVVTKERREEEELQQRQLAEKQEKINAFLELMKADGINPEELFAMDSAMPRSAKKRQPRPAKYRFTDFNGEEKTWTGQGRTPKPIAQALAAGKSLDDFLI

[9] = biological target: T5, H-NS (Salmonella enterica, UniProt A0A0H3NBY9); test: ITC ([…] stoichiometry); also UV-crosslinking competition and EMSA inhibition of DNA binding
T5 construct: gene hns; full-length, tag-free

[10] = biological target: StpA (Salmonella enterica, UniProt P0A1S4); test: Kd measurement (ITC, Supplementary Fig. […]b); type: binding

PvgrG
Kd [1]: 460 nM
Kd [2]: 380 nM

CAAAACTCATGGTAGTGACTCCTTTAATACCGGATTAAAATAAATAGACTCACCGTCAGGAAACAGTGCCCCGCACTTTATAATGCAACCAGCCTGTTATATTTAAATATTTACCAGAAGAACAGGGTATATTGCTGACAAGAGCCATGAAAATAAAAACACAAAAATTAGCACATAACATAAATACTGAATTACATAAATAAGGAAATGAACATAACAATA (double strand) [PvgrG]
Kd [3]: 460 nM
Kd [4]: 380 nM
binding [5]: binds more weakly
binding [6]: binds
binding [7]: binds

TTCCATGTGTTATGCCTTGTGACATAAAAATTCATAAAAATAATGCATCAATGCATATAAATATATAAACAATTCTTTATTGATAGCCTCGAAAAAATATCGAAACAAAACAATGATACAGATCAGGGACTAATTAGCAACTAAGCCGTTAATATTAAATAATCAATGAACAGCAAGATAAAAA (double strand) [PclpV]
Kd [3]: 310 nM
Kd [4]: 320 nM
binding [5]: binds more weakly
binding [6]: binds
binding [7]: binds

PfimA
Kd [1]: 360 nM
Kd [2]: 430 nM

TAATCGATGGTGTTATCATTAGGAAGATAAATTTCTTCATATATAACCCAGTCGATGACTACAATTACTTTTTAATAAGATGGCGATGTAAAAACATCGTAACAGTTTATTTAATAAATAATTTTTCAAATTGTAAGTTTTTATGTCAATGCTGAAAATGTAATTGTGAATTTATCGGAAAATCCGAATGATAGAATCGCCTGTGACAAGGTATATGTAGACAGCATCCTGATATTGTA (double strand) [PssrAB]
binding [6]: binds

Nc1nc2c(ncn2[C@@H]2O[C@@H]3CO[P@](=O)(O)O[C@H]4[C@@H](O)[C@H](n5cnc6c(=O)[nH]c(N)nc65)O[C@@H]4CO[P@](=O)(O)O[C@H]3[C@H]2O)c(=O)[nH]1 [c-di-GMP]
Kd [8]: 640 ± 90 nM
Kd [9]: 270 ± 40 nM
Kd [10]: 73000 ± 14000 nM

PyaiU
Kd [1]: 290 nM

ATGTTTCATGGATTTCCCTTGAATTACACACACCCGGTTTCGGCATCCTGTCGGCTCCGTTTGAATTATTATCGACATAGCATGTCAGAAAAGTTATCTCTGCATCCTGTAAAGATAGATATCGCAGATTAATTAGTTTTCTGTTTCTCCCCTGAGTATCAGACGCAGTAATTAATCTTTGCGAATATGACATTTCGTCACGGTAATAAATTAAACATTTCGCTAAATAAAAAATAGCCG (double strand) [PfimA]
Kd [3]: 360 nM
Kd [4]: 430 nM
binding [6]: binds
binding [7]: binds

PclpV
Kd [1]: 310 nM
Kd [2]: 320 nM
